# Data: article PMC9789309
# Legend:
# [1] = molecular target: ACE2, membrane-anchored, endogenously expressed on VeroE6 cells (African green monkey (endogenous in VeroE6)); assay: single-molecule force spectroscopy (AFM)
# [2] = molecular target: ACE2, membrane-anchored, endogenously expressed on VeroE6 cells (African green monkey (endogenous in VeroE6)); assay: single-molecule force spectroscopy (AFM) + kinetic model
substance,measurement,setting,value
SARS-CoV-2 Delta variant RBD monomer (from UniProt P0DTC2) (domain or fragment),Kd,[1],0.97 nM
SARS-CoV-2 Delta variant Spike trimer (from UniProt P0DTC2) (natural protein),Kd,[1],0.5 nM
same,on-rate of three bonds,[1],23 s⁻¹
same,on-rate of two bonds,[1],80 s⁻¹
same,percentage of one bond,[1],68.7%
same,bond lifetime at 20 pN (calculated),[2],460 s
same,bond lifetime at zero force (calculated),[2],42000 s
SARS-CoV-2 Omicron (B.1.1.529) variant RBD monomer (from UniProt P0DTC2) (domain or fragment),Kd,[1],0.068 nM
SARS-CoV-2 Omicron (B.1.1.529) variant Spike trimer (from UniProt P0DTC2) (natural protein),Kd,[1],0.055 nM
same,on-rate of two bonds,[1],49 s⁻¹
same,percentage of one bond,[1],85.4%
same,percentage of three bonds,[1],1%
same,percentage of two bonds,[1],13.6%
same,bond lifetime at 20 pN (calculated),[2],960 s
same,bond lifetime at zero force (calculated),[2],370000 s
